Key:
[1] = target: HLA-A2 molecule (Homo sapiens, UniProt P04439, D140Y/D185E/D98H/E176V/E277Q/G131W/G231S/I119V/I121R/I166T/I218V/L300P/L318F/N151K/N90K/P208A/P217A/Q86G/Q94H/R138H/R169H/T345S); conditions: from the literature (Panagiotopoulos et al., 2003; Regner et al., 1996); cited from earlier work
[2] = target: T1, human HLA-A2 MHC class I molecule (HLA-A*0201) on T2 cells (human); experiment: descriptor in the legend of an IFN-gamma ELISPOT figure (T2 cells as APC)
T1 construct: Surface HLA-A2 was read with FITC anti-HLA-A2 mAb BB7.2; also called HLA-A2.1

[3] = target: T1, human HLA-A2 MHC class I molecule …; experiment: peptide library screen; HLA-A2 restriction on T2 cells

Molecule	binding result [2]	further results
KLQVFLIVL [PreproIAPP5-13]		binding to HLA-A2 [1]: HLA-A2-binding
ALIPYCVHM (also called murine IGRP 337-345) [mIGRP337-345 (ALIPYCVHM)]	binds	
VLFGLGFAI (also called murine IGRP 265-273) [mIGRP265-273 (VLFGLGFAI)]	binds	
FGIDLLWSV (also called murine IGRP 228-236) [mIGRP228-236 (FGIDLLWSV)]		binding result [3]: binds
